Reference: patent US20240025993A1, “CD19 BINDING MOLECULES AND USES THEREOF” (NOVARTIS AG, priority 2020, published 2024)

How the values were obtained:
[1] = Differential scanning calorimetry, melting temperature of Fc modified anti-CD3 antibodies (Example 35); format: physicochemical; details: DSC, 1 mg/ml in PBS pH 7.4, anti-CD3 IgG1 Fc variants
Procedure: Calorimetric measurements were carried out on a differential scanning micro calorimeter (Nano DSC, TA instruments). The cell volume was 0.5 ml and the heating rate was 1° C./min. All proteins were used at a concentration of 1 mg/m in PBS (pH 7.4). The molar heat capacity of each protein was estimated by comparison with duplicate samples containing identical buffer from which the protein had been omitted. The partial molar heat capacities and melting curves were analyzed using standard procedure. Thermograms were baseline corrected and concentration normalized.

[2] = Aggregation propensity (% HMW) by analytical SEC of IgG1 anti-CD3 antibody and Fc variants (Example 35); format: physicochemical; details: PBS pH 7.4, anti-CD3 antibodies
Procedure: Size exclusion chromatography measurements were performed to evaluate the aggregation propensity (% HMW) of IgG1 antibody and Fc modified derivatives. The produced and purified anti CD3 antibodies were applied to an analytical size exclusion chromatography column (SEC 200, GE Healthcare), equilibrated with PBS buffer pH 7.4.

[3] = test system: Jurkat NFAT luciferized (JNL) cells with THP-1 cells; test: Anti-CD3 NFAT signalling assay, JNL + THP-1 cells (Example 36); format: cell-based, human
Procedure: Jurkat reporter gene assay (RGA) for the nuclear factor of activated T-cells (NFAT) pathway was performed using Jurkat NFAT luciferized (JNL) cells and THP-1 cells (ATCC, TIB202). THP-1 cells express FcγRI, FcγRII, and FcγRIII. Cells were co-incubated for 6 hours at 37° C., 5% CO2 at a 5:1 effector to tumor ratio with each sample at the various concentrations depicted. An equal volume of ONE-Glo™ reagent (Promega, E6110) was added to the culture volume. Plate was shaken for 2 minutes, then incubated for an additional 8 minutes protected from light. For JNL+ THP+IFNg experiment, THP-1 cells were pre-treated with 100 u/mL IFNg for 48 hours at 37° C., 5% CO2 before co-culture. IFNg stimulation increases FcγRI expression. Luciferase activity was quantitated on the EnVision plate reader (PerkinElmer). Data was analyzed and fit to a 5 parameter-logistic curve using GraphPad Prism.

human FcγR1A = human FcγR1A (Homo sapiens, UniProt P12314); test: SPR binding of Fc modified anti-CD3 IgG1 antibodies (Example 34); details: anti-CD3 IgG1 antibody immobilized
Procedure: Surface plasmon resonance (SPR) experiments were performed to analyze the interaction of human activating receptors FcγR1A, FcγR3A (V158) and human C1q with IgG1 WT and antibody-Fc variants. Binding kinetics and their relative binding affinities were explored. The binding affinity is an important characteristic of an interaction between an antibody and an antigen. The equilibrium dissociation constant (KD) defines how strong the interaction is and therefore how much antibody-antigen complex is formed at equilibrium.
The knowledge of the antibody characteristics is not only essential during selection of the best therapeutic antibody candidate, but also important to understand the in vivo behavior and potentially predict cellular immune responses. […] Binding to human C1q was evaluated. […] SPR measurements were measured on a Biacore T200 (GE-Healthcare Life Sciences) controlled by Biacore T200 control software version 2.0.1. […]
The antibodies were covalently immobilized on a CM5 sensor chip whereas Fc gamma receptors or human C1q served as analytes in solution (FIG. 38). […] Zero concentration samples (blank runs) were measured for both methods to allow double-referencing during data evaluation.
Data were evaluated using the Biacore T200 evaluation software. […] In addition, the maximum response reached during the experiment was monitored. […]

[4] = test system: T cells co-cultured with OCI-LY-19, Karpas422 or Toledo target cells; test: TBM and BBM mediated T cell proliferation (Example 20); format: cell-based, human; details: in the presence of OCI-LY-19 and Toledo cells; E:T 1:3, 96 hrs
Procedure: Briefly, OCI-LY-19, Karpas422, and Toledo target cells stably expressing firefly luciferase were plated in a 96 well plate in T Cell Media (TCM) (RPMI-1640, ThermoFisher Scientific, Cat #11875-085), 10% FBS (Seradigm, Cat #1500-500), 1% L-Glutamine (Thermo Fisher Scientific, Cat #25830-081), 1% Non Essential Amino Acids (Thermo Fisher Scientific, Cat #11140-050),1% Pen/Strep (Thermo Fisher Scientific, Cat #15070063), 1% HEPES (Thermo Fisher Scientific, Cat #15630080), Sodium Pyruvate (Thermo Fisher Scientific, Cat #11360-070), 0.1% Beta-mercaptoethanol (Thermo Fisher Scientific, Cat #21985-023)]. PBMCs previously isolated and cryopreserved from 2 Leukopak donors were thawed and Pan T cells were isolated (as described earlier). Isolated T cells were labelled with 5 μM Cell Trace Violet (CTV) (Thermo Fisher Scientific, Cat #C34557) following the manufacturer's protocol and were co-cultured with target cells at an E:T ratio of 1:3. A dilution series of CD3med TSP1, CD3hi TSP1, CD3hi BSP1, CD3hi TSP1C, and blinatumomab ranging from 2.5 nM-0.0006 nM was added to cells and the plates were incubated in a 5% CO2, 37° C. incubator for 96 hrs. […]

[5] = THP-1 cells preincubated with IFNg (100 u/mL, 48 hours)

human FcγR1A, sequence (P12314 16-374): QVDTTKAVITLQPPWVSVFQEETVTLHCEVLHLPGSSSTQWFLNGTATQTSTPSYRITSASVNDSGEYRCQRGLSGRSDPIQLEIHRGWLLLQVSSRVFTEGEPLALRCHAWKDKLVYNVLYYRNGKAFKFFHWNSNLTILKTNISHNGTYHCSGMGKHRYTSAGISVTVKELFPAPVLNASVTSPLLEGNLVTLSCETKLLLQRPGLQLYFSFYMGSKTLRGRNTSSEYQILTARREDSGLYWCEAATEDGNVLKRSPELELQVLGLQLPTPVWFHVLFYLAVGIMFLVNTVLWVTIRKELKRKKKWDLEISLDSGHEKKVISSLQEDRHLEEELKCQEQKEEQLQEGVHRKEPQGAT

DAPA-IgG1: anti-CD3 IgG1 with D265A/P329A; previously described silencing motif [reference compound]
Melting temperature (Tm) of CH2 domain [1]: 65 °C
(%) higher molecular weight [2]: 3.9%
NFAT activity (T-cell activation) [3, 5]: some activity remaining
NFAT activity (T-cell activation) ([3]; without IFNg, JNL:THP-1 5:1, 6 hours): comparable T-cell activation with the exception of DAPA

LALAGA-IgG1: anti-CD3 IgG1 with L234A/L235A/G237A
Maximum response at 100 nM hFcgammaRIA (RU) (human FcγR1A): 15 RU
Melting temperature (Tm) of CH2 domain [1]: 70 °C
(%) higher molecular weight [2]: 2.9%

LALAPA-IgG1: anti-CD3 IgG1 with L234A/L235A/P329A
Melting temperature (Tm) of CH2 domain [1]: 70 °C
(%) higher molecular weight [2]: 1.8%
NFAT activity (T-cell activation) [3, 5]: some activity remaining

LALAPG-IgG1: anti-CD3 IgG1 with L234A/L235A/P329G
Maximum response at 100 nM hFcgammaRIA (RU) (human FcγR1A): 18 RU
Melting temperature (Tm) of CH2 domain [1]: 70 °C
(%) higher molecular weight [2]: 4.2%

blinatumomab: bispecific T cell engager, or BiTE, that binds to both CD19 and CD3 but lacks an Fc domain [reference compound]
T cell proliferation (% proliferated CD3+ T cells) [4]: most potent T cell proliferation
